The series is described as follows: yeast display, Sf9 membrane polyspecificity reagent, FACS + sequencing; frameworks hold sequencing errors. In short, it runs like this: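 A nanobody's polyreactivity label depends on the gate it was sorted from. Yeast display cells were stained with 10% biotinylated, detergent-solubilized Sf9 membrane reagent for 1 hour at 4 °C, enriched on streptavidin microbeads and sorted by FACS. The low and high (top ~1%) gates were set on anti-HA fluorescence for expression and streptavidin fluorescence for reagent binding.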
Consider “QVQIVESGGGLVQAGGILRLSCAASGNTFGYYAMGWYRQAPGKEWELVAAISRGGGSTYYADSVKGRFTISRDNAKNTVYLQMNRLKPEDTAVYYCARRYRLSTSWSYRVGYWGQGTQVTVSS”, for which the “polyreactivity (PSR sort gate)” value is on record as “high polyreactivity”. To “QVQLVESGGGLVQEGGSLRLSCAASGRIFWSYAMGWYRQAPGKERELVAAITWRTGRTYYADSVKGRFTISRDNAKNTVYLQMNSLKPEDTAVYYCAAEGYLGGQSYNGLNYDSWGQGTQVTVSS” belongs “low polyreactivity”; to “QVQLVESGGGLVQAGGSLRLSCAAYGRIFSRYAMGWYRQAPGKERELVAAISSSGTTTYYADSVNGRFTISRDTAKNTVYLQMNSLKPEDTAVYSCATSAVRHIYWGQGTQVTVSS”, “high polyreactivity”. To “QVQLVESGGGLVQAGGSLRLSCAASGYTFRWYAMGWYRQAPGKERELVAAISWSTGRTYYADSVKGRFTISRDNAKNTVYLQMNSLKPEDNAVYYCAASYYVYSGGNYLRYDSWGQGTQVTVSS” belongs “high polyreactivity”; to “QVQLVESGGGLVQAGGSLRLSCAASGFIFTYYAMGWYRQAPGKERELVAVISWSGGTTYYADSVKGRFTISRDNAKNTVYLQMNSLKPEDTAVYYCAAGKVSFWLVFEYDYWGQGTQVTVSS”, “low polyreactivity”. To “QVQLVESGGGLVQAGGSLRLSCAASGRTFYYYGMGWYRQAPGKERELVASITNGGNTNYADSVKGRFTISRDNAKNTVYLQMNSLKPEDTAVYYCAKDVPYWRPVVRYDYWGQGTQVTVSS” belongs “low polyreactivity”. On to “QVQLVESGGGLVQAGGSLRLSCAASGSIFPWYTMGWYRQAPGKEREFVASISSSASDTYYADSVKGRFTISRDNAKNTVYLQMNSLKPEDTAVYYCAARAYYRYWHGNYRHYSFDYWGQGTQVTVSS”, for which the “polyreactivity (PSR sort gate)” value is recorded as “high polyreactivity”. Then “QVQLVESGGGLVQAGGSLRLCCAASGNIFAYYAMGWYRQPPAKERELVAGISRRGGNTYYADSVKGRFTISRDNAKNTVYLQMNSLKPEDTAVYYCAAITYSGQRFDYWGQGTQVTVSS”, with “high polyreactivity”; and “QVQLVESGGGLVQAGGSLRLSCAASGYNFGVYAMGWYRQAPGKERELVAAINGGDSTYYADSVKGRFTISRDNAKNTVYLQMNSLKPEDTAVYYCAADPYSVYGGDYWGQGTQVTVSS”, with “low polyreactivity”; and “QVHLVESGGGLVQAGGSLRLSCAASGITFYRNAMGWYRQPRGKEMELVAAITWNGGRTYYADSVKGRFTISRDNAKNTVYLQMNSLKPEDTAVYYCAADSGSRNLASYRYYSWGQGTQVTVSS”, with “low polyreactivity”. Consider “QVQLVESGGGLVQAGGSLRLSCAASGSTFDYYAMGWYRQAPGKERELVAAISSTDGSTFYADSVKGRFTISRDNAKNTVYLQMNSLKPEDTAVYYCAVVGYYYPWPNGYDYWGQGTQVTVSS”, for which the “polyreactivity (PSR sort gate)” value is reported as “low polyreactivity”. To “QVQLVESGGGLVQAGGSLRLSCAASGITFKRYTMGWYRQAPGKERELVADITWSGGSTYADSVKGRFTISRDNAKNTVYLQMNSLKPEDTAVYYCAAEWQTWYGVEYDYWGQGTQVTVSS” belongs “high polyreactivity”; to “QVQLVESGGGLVQAGGSLRLSCAASGRTFIVNAMAWYRQAPGKERELVAAISSGGSTNYADSVKGRFTISRDNAKNTVYLQMNSLKPEDTAVYYCASRLRGPRSYWSWYGYWGQGTQVTVSS”, “high polyreactivity”. Take “QVQLVESGGGLVQAGGSLRLSCAASGSIFAYYAMGWYRQAPGKERELVAAITWSGGITYYADSVKGRFTISRDNAKNTVYLQMNSLKPEDTAVYYCNADEWPPYEYEYWGQGTQVTVSS”: the “polyreactivity (PSR sort gate)” value is recorded as “low polyreactivity”. “QVQLVESGGGLVQAGGSLRLSCAASGFIFSVYTMGWYRQAPGKERELVASITWSGGDTYYADSVKGRFTISRDNAKNTVYLQMNSLKPEDTAVYYCNVDAGFHDSYHAWNLRYDYWGQGTQVTVSS”: the “polyreactivity (PSR sort gate)” value is listed as “low polyreactivity”. Take “QVQLVESGGGLVQAGGSLRLSCAASGRIFHPNAMGWYIQAPGKERELDAAISRSGSTYYADSVKGRFTISRDNAKNTVYLQMNSLKPEDTAVYYCATQTWSCFSGTPRIYDYWGQGTQVTVSS”: the “polyreactivity (PSR sort gate)” value is on record as “high polyreactivity”.

For the sequence “QVQLVESGGGLVQAGGSLRLSCAASGSTFKAYVMGWYRQAPGKERELVAVISRSGGTTYYADSVKGRFTISRDNAKNTVYLQMNSLKPEDTAVYYCAAQWRYQYPESLESYYWGQGTQVTVSS”, the “polyreactivity (PSR sort gate)” value is on record as “high polyreactivity”. Turning to “QVQLVESGGGLVQAGGSLRFSCAASRFNFYDYVMGWYRQAPGKYRELVAAISSNGGSTYYADSVKGRFTISRDNAKNTVYFQMYSLKPEDTAVYYCAVTENSKSNKIRPDQGDYWGQGTQVTVSS”, the “polyreactivity (PSR sort gate)” value is reported as “high polyreactivity”. Then “QVQLVESGGGLVQAGGSLRLSCAASGITLSANAMGWYRQAPGKERELVATITWSGGSTYYADSVKGRFTISRDNAKNTVYLQMNSLKPEDTAVYYCNARSYDEYPYYSYNYWGQGTQVTVSS”, with “low polyreactivity”; and “QVQLVESGGGLVQAGGSLRLSCAASGFTFVIYAMGWYRQAPGKERELVAAIRSGGRTYYADSVKGRFTISRDNAKNTVYLQMNSLKPEDTAVYYCAAVPALKWYGYEYWGQGTQVTVSS”, with “high polyreactivity”; and “QVQLVESGGGLVQAGGSLRLSCAASGGTFFGYAMGWYRPAPGKERELVAAISGSGGRTYYADSVKGRFTISRDNAKNTVYLQMNSLKPEDTAVYYCAADATHETYYPFYYWGQGTQVTVSS”, with “high polyreactivity”. Then “QVQLVESGGGLVQAGGSLRLSCAASGRIFSVYVMGWYRQAPGKERELVAAITRSGGRTYYADSVKGRFTISRDNAKNTVYLQMNSLKPDDTAVYYCAARVKGYAYNYWGQGTQVTVSS”, with “high polyreactivity”; and “QVQLVESGGGLVQAGGSLRLSCAASGRTLRRYAMGWYRQAPGKERELVAGISRNGGSTYYADSVKGRFTISRDNAKNTVYLQMNSLKPDDTAVYYCNKVAYPYSILRYGYWGLGTQVTVSS”, with “high polyreactivity”. For “QVQLQQSVGGLVQAGGSLRLSCAASGNIFPTDRMGWYRQAPGKELEFVATISHGGRTNYADSVKGRFTISRDNATNTVYLQMNRLKPEDTAVYFCAVWSLGRWRHYYWGQGSQVTVSS”, the “polyreactivity (PSR sort gate)” value was “low polyreactivity”. Then “QVQLVESGGGLVQAGGSLRLSCAASGIIFRRYAMGWYRQAPGKERELVAAISSGGRTYYADSVKGRFTISRDNAKNTVYLQMNSLKPEDTAVYYCNARAFARYWWYEYWGQGTQVTVSS”, with “high polyreactivity”; and “QVQLVESGGGLVQAGGSLRLSCAASGRTFGRNAMGWYRQAPGKERELVAAISSSGTRTYYADSVKGRFTISRDNAKNTVYLQMNSLKPEDTAVYYCAVDTLRYKMDYWGQGTQVTVSS”, with “low polyreactivity”. To “QVQLEESGGGLVQAGGSLRLSCAASALTIEYNAKGSYRQAPAKERELVATISWSDSTRYADSVKGRLTISRDNAKSTVYLQMNSLKPEYTAVYDSNADVYWAWWEFDYWGQGTQVTVSS” belongs “low polyreactivity”; to “QVQLVESGGGLVQAGGSLRLSCAASGRTFSWYAMGWYRPAPGQERELVAAITYSGGNTYYADSVKGRFTISRDNAKNTVYLQMNSLKPEDTAVYYCAKYGVTGQGSWSQRMGYWGQGTQVTVSS”, “high polyreactivity”; to “QVQLQESGGGLVQAGGSLRLSCAASGTITVLYKMGWFRQAPGKEREFVASINYGTSTYYADSVKGRFTVSRDSAKNSVYLQMNSLKPEDTAVYYCAAAYRWQDVYRYWGQGTQVTVSS”, “low polyreactivity”. To “QVQLVESGGGLVQAGGSLRLSCAASGRTFAFYAMGWYRQAPGKERELVASISSSGDRTYYADSVKGRFTISRDNAKNTVYLQMNSLKPEDTAVYYCAARWSYTYYYWGQGTQVTVSS” belongs “high polyreactivity”.

Regarding “QVQLVESGGGLVQAGGSLRLSCAASGLSLDVNVMGWYRPAPGKERELVAGIRSDSRTNYADSVKGRFTISRDNAKNTVYLQMNRLKPEDTAVYYCATRDKYISYYTYPYYSWGQGTQVTVSS”, the “polyreactivity (PSR sort gate)” value is given as “low polyreactivity”. Then “QVQLVESGGGLDQAGGSLLLSCAASGFTFGPYAMGWYRQAPGKERELVATIRSGYSTNYADSVKGRFTISRDNAKNTVYLQMNSLKPEDTAVYYFNREGWHYGPYGYWGQGTQVNVSS”, with “low polyreactivity”.

With “QVQLVESCGCLVQAGGSLRLSCAAYGITFGRNTMVWDRQAPGKERELVAAIDSGGNTYAVSVKGRFTISRDNAKNTVYLQMISLKPEDTAVYYCAVDGGEFSSYGYWGQGTQVTVSS”, the “polyreactivity (PSR sort gate)” value is given as “low polyreactivity”. Then “QVQLVESGGGLVQAGGSLRLSCAASGRIFVRNAMGWYRPAPGKERELVAGITRGGGTNFADSVKGSFTISRDNAKNTVYLQMNSLKPEVTAVYDCNALHRARLFGHYPYESWGHGTQVTVSS”, with “high polyreactivity”; and “QVQLVESGGGLVQAGGSLRLTCAASGITFKYKAMGWYRQAPGKEWELVAAISKGGGSTYYADSVKGRFTISRDNAKNTVYLQMNSLKPEVTAVYYCNAVPRRPVVSDTNPVGYDYWGEGTQVTVSS”, with “low polyreactivity”; and “QVQLVESGGGLDQAGGSLRLSCAAYGVPSLTMNMGWYRQAPGKERELFATIYSGGSTYYADSVKWRFTISRDNAKNTVYLQMNRLKPEDTAVYYCAARQSYYYSRSYIRGDYWGQGTQVTVSS”, with “high polyreactivity”. To “QVQLVESGGGLVQAGGSLRLSCAASGRTLWSYAMGWYRQAPGKEREIVAAISRRGGITYYADSVKGRFTISRDYAKNTVFLQRISLKPVDTAVFYSAKGAQSYYGGQVKYDYWGQGTQVTVSS” belongs “high polyreactivity”; to “QVHLVESGAGLVHAGGRLRLSCAASGRIFFGYAMGWYRQAPGKERELVAGITSSTGRTYYADSVKGRFTISRDNAKNTVYLQMNSVKPEDTAVYYCAADTWYRYDYWGQGTQVTESS”, “low polyreactivity”; to “QVQLVESGGGLVQAGGSLRLSCAASGYIFRRYAMGWYRQAPGKERELVAAISFSGGSTYYADSVKGRFTISRDNAKNTVYLQMNSLKPEDTAVYYCAALSLLRYDYWGQGTQVTVSS”, “high polyreactivity”.

Regarding “QVQLVESGGGLVQAGGSLRLSCAASGLIFKLYAMGWYRQAPGKERELVAAITDRGGSTYYADSVKGRFTISRDNAKNTVYLQMNSLKPEDTAVYYCAAPYAGWRDGGDYWGQGTQVTVSS”, the “polyreactivity (PSR sort gate)” value is reported as “low polyreactivity”.

“QVQLVESGGGLVQAGGSLRLSCAASGFIFRYYAMGWYRQAPGKERELVAAITKSGGRTFYADSVKGRFTISRDNAKNTVYLQMNSLKPEDTAVYYCAARANGRDDYWGQGTQVTVSS”: the “polyreactivity (PSR sort gate)” value is on record as “high polyreactivity”.

Source of the values: the nanobody polyreactivity screen of Harvey et al. (2022).
